The values below come from patent publication US9051555 (SALK INSTITUTE FOR BIOLOGICAL STUDIES, dated 2015).

This data set deals with the molecule itself. Description: X-ray crystallography, homodimer in the asymmetric unit.

B1: isopentenyl phosphate kinase (IPK) from Methanocaldococcus jannaschii (enzyme)
chain: MLTILKLGGSILSDKNVPYSIKWDNLERIAMEIKNALDYYKNQNKEIKLILVHGGGAFGHPVAKKYLKIEDGKKIFINMEKGFWEIQRAMRRFNNIIIDTLQSYDIPAVSIQPSSFVVFGDKLIFDTSAIKEMLKRNLVPVIHGDIVIDDKNGYRIISGDDIVPYLANELKADLILYATDVDGVLIDNKPIKRIDKNNIYKILNYLSGSNSIDVTGGMKYKIEMIRKNKCRGFVFNGNKANNIYKALLGEVEGTEIDFSE
notes: The crystal holds a homodimer, two molecules in the asymmetric unit; also called IPK-Mjannaschii; IPK-Mj
Consider B1, for which the binding result is “binds”.
